Patent US20240076396A1 (Regeneron, published 2024)
Substitutions are numbered along the chain they refer to.

B1: CompAb1 heavy chain variant N101H (antibody, human IgG1, V domains shown)
VH: QVQLQESGPGLVKPSETLSLTCIVSGGSISGYFWNWIRQPPGKGLEWIGYIYYSGTTIYNPSLKSRFTISLDTSKNQFSLKLTSVTAADTAVYYCARESYHPSPRYFDHWGQGTLVTVSS
VL: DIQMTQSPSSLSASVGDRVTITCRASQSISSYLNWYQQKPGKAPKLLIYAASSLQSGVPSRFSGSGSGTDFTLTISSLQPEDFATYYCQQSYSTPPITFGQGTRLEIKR
notes: human IgG1 constant region; tested as CHOt supernatant; also called Sample Number 7
B2: CompAb1 heavy chain variant N101Y (antibody, human IgG1, V domains shown)
VH: B1 VH with H101Y
VL: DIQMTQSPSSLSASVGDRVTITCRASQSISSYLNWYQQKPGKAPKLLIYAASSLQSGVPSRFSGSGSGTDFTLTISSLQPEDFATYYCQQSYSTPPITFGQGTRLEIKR
notes: human IgG1 constant region; tested as CHOt supernatant; also called Sample Number 19
B3: CompAb1 heavy chain variant N101W (antibody, human IgG1, V domains shown)
VH: B1 VH with H101W
VL: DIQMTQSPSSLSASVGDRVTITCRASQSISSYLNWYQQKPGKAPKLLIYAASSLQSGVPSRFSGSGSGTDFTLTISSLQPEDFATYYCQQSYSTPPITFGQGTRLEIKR
notes: human IgG1 constant region; tested as CHOt supernatant; also called Sample Number 18
B4: CompAb1 heavy chain variant N101P (antibody, human IgG1, V domains shown)
VH: B1 VH with H101P
VL: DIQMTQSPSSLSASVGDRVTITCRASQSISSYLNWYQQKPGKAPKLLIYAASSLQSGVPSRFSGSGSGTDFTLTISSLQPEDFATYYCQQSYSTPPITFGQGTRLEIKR
notes: human IgG1 constant region; tested as CHOt supernatant; also called Sample Number 12
B5: hGITR.mmH (soluble monomeric recombinant human GITR ectodomain protein) (receptor)
chain: QRPTGGPGCGPGRLLLGTGTDARCCRVHTTRCCRDYPGEECCSEWDCMCVQPEFHCGDPCCTTCRHHPCPPGQGVQSQGKFSFGFQCIDCASGTFSGGHEGHCKPWTDCTQFGFLTVFPGNKTHNAVCVPGSPPAEPEQKLISEEDLGGEQKLISEEDLHHHHHH
notes: also called monomeric human GITR

Key:
[1] = target: B5; experiment: SPR Biacore 2000 25C; CHOt supernatant antibody captured on anti-human Fc
Experimental: (§1) Biacore experiments for antibodies secreted in conditioned culture medium were performed as follows. Using a Biacore 2000 instrument at 25° C., antibodies were captured for 80 seconds at a flow rate of 8 uL/min on a CM5 anti-humanFc-coupled surface. Approximately 1000-2000 RU of each antibody were captured. 100 nM hGITR.mmH (soluble monomeric hGITR, SEQ ID NO: 45) or 50 nM hGITR.mFc (dimeric Macaca fasicularis GITR, SEQ ID NO: 46) were injected over this surface for 2 minutes at a flow rate of 50 uL/min. Dissociation was measured for 2 minutes. The KD and t_{1/2} were calculated by fitting the double-referenced sensorgrams to a 1:1 binding model.

[2] = target: T1, hGITR.mFc (dimeric recombinant human GITR ectodomain protein, mouse Fc fusion) (human); experiment: as above
T1 construct: also called dimeric human GITR; dimeric GITR
T1 chain: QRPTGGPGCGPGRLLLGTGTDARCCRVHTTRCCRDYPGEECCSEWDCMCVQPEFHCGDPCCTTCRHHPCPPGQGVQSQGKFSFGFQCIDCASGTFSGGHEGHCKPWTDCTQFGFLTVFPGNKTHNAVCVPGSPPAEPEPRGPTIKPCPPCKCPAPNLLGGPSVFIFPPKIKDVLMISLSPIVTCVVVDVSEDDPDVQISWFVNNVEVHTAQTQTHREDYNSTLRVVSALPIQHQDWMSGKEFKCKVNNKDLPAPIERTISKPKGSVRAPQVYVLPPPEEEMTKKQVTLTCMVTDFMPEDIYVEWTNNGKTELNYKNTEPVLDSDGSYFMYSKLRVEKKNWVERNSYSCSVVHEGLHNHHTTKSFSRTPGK
Experimental: as §1

[3] = target: human GITR-L (6His.GCN4.G4Sx3.hGITR-L) (human, UniProt Q9UNG2 52-177); experiment: ELISA: hGITR.mmH (3.4 pM to 200 nM) on plate-coated hGITR-L, anti-cMyc-HRP detection
Chain of human GITR-L (6His.GCN4.G4Sx3.hGITR-L) (Q9UNG2 52-177): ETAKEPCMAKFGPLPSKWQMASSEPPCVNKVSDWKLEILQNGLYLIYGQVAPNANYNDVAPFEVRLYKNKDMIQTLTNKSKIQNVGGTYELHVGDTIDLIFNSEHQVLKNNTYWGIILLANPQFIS
Experimental: FIG. 13 depicts effects of anti-GITR antibody on human GITR binding to human GITR-L. Binding of human GITR protein, hGITR.mmH, at a range of concentrations (3.4 pM to 200 nM) to immobilized human GITR-L was evaluated by ELISA and EC₅₀ values for binding were determined. A fixed concentration of recombinant hGITR.mmH (1.5 nM), based on the EC₅₀ values calculated for binding to hGITR-L, was pre-incubated with mAb1, or an IgG1 isotype control at a range of concentrations (51 pM to 3 μM) and added to wells containing immobilized human GITR-L to determine the ability of the antibodies to block hGITR.mmH binding to immobilized human GITR-L. Binding of hGITR.mmH was detected with an HRP-conjugated cMyc antibody using TMB substrate, and the OD₄₅₀ was measured by spectrophotometry.
The binding of recombinant hGITR to its ligand, hGITR-L, was determined using an enzyme-linked immunosorbent assay (ELISA)-based binding assay. […] Plate-bound hGITR.mmH was detected with horseradish peroxidase (HRP) conjugated goat anti-cMyc antibody at 0.33 μg/ml and visualized using the colorimetric HRP substrate 3-3′, 5-5′-tetramethylbenzidine (TMB) according to the manufacturer's recommended procedures. Absorbance data at 450 nm (OD₄₅₀) were plotted as a function of the concentration of recombinant hGITR.mmH. […]

Row | Binder | binding result [1] | binding result [2] | EC50 [3] [nM]
1 | B1 | no binding (tested: 100 nM hGITR.mmH) | no binding (tested: 50 nM hGITR.mFc) | –
2 | B2 | no binding (tested: 100 nM hGITR.mmH) | no binding (tested: 50 nM hGITR.mFc) | –
3 | B3 | no binding (tested: 100 nM hGITR.mmH) | no binding (tested: 50 nM hGITR.mFc) | –
4 | B4 | no binding (tested: 100 nM hGITR.mmH) | no binding (tested: 50 nM hGITR.mFc) | –
5 | B5 | – | – | 2.05
